Biological target: the molecule itself
Assay: SEC

B1: CcmL, pentameric vertex protein of the β-carboxysome from Thermosynechococcus elongatus BP-1 (natural protein)
chain: MKIARVCGTVTSTQKEDTLTGVKFLVLQYLGEDGEFLPDYEVAADTVGAGQDEWVLVSRGSAARHIINGTDKPIDAAVVAIIDTVSRDNYLLYSKRTQY
  stoichiometry N: 5

B2: HCcmL, CcmL with a pentahistidine tag (Histag) inserted between D33 and G34 (natural protein, Thermosynechococcus elongatus BP-1)
chain: MKIARVCGTVTSTQKEDTLTGVKFLVLQYLGEDHHHHHGEFLPDYEVAADTVGAGQDEWVLVSRGSAARHIINGTDKPIDAAVVAIIDTVSRDNYLLYSKRTQY
  stoichiometry N: 5

Reference: article PMC8812686 (Proceedings of the National Academy of Sciences of the …, 2022)
